Measured values reported in US20150344570A1 (published 2015).

The binders below were run against FcγRIIa H (human, UniProt P12318 34-217) (assay: SPR Biacore, captured antibody, FcγR analyte; vs GpH7-B3/GpL16-k0 = 100).
FcγRIIa H, sequence (P12318 34-217): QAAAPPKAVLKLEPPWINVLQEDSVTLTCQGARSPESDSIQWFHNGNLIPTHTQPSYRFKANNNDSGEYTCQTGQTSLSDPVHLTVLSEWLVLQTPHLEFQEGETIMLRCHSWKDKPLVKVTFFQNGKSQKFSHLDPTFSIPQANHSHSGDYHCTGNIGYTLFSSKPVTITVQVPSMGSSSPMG

Binder | Ho/Con_2aH
GpH7-B3 variant K326_10E/GpL16-k0 (antibody, human IgG1, kappa, also called Ho Ab K326_10E) heavy: not shown light: DIVMTQSPLSLPVTPGEPASISCQASESLVHSNRNTYLHWYLQKPGQSPQLLIYKVSNRFSGVPDRFSGSGSGTDFTLKISRVEAEDVGVYYCSQNTHVPPTFGQGTKVEIERTVAAPSVFIFPPSDEQLKSGTASVVCLLNNFYPREAKVQWKVDNALQSGNSQESVTEQDSKDSTYSLSSTLTLSKADYEKHKVYACEVTHQGLSSPVTKSFNRGEC | 101 % of control
GpH7-B3 variant L235_04F/GpL16-k0 (antibody, human IgG1, kappa, also called Ho Ab L235_04F) heavy: not shown light: DIVMTQSPLSLPVTPGEPASISCQASESLVHSNRNTYLHWYLQKPGQSPQLLIYKVSNRFSGVPDRFSGSGSGTDFTLKISRVEAEDVGVYYCSQNTHVPPTFGQGTKVEIERTVAAPSVFIFPPSDEQLKSGTASVVCLLNNFYPREAKVQWKVDNALQSGNSQESVTEQDSKDSTYSLSSTLTLSKADYEKHKVYACEVTHQGLSSPVTKSFNRGEC | 101 % of control
GpH7-B3 variant K334_04F/GpL16-k0 (antibody, human IgG1, kappa, also called Ho Ab K334_04F) heavy: not shown light: DIVMTQSPLSLPVTPGEPASISCQASESLVHSNRNTYLHWYLQKPGQSPQLLIYKVSNRFSGVPDRFSGSGSGTDFTLKISRVEAEDVGVYYCSQNTHVPPTFGQGTKVEIERTVAAPSVFIFPPSDEQLKSGTASVVCLLNNFYPREAKVQWKVDNALQSGNSQESVTEQDSKDSTYSLSSTLTLSKADYEKHKVYACEVTHQGLSSPVTKSFNRGEC | 103 % of control
GpH7-B3 variant L235_20W/GpL16-k0 (antibody, human IgG1, kappa, also called Ho Ab L235_20W) heavy: not shown light: DIVMTQSPLSLPVTPGEPASISCQASESLVHSNRNTYLHWYLQKPGQSPQLLIYKVSNRFSGVPDRFSGSGSGTDFTLKISRVEAEDVGVYYCSQNTHVPPTFGQGTKVEIERTVAAPSVFIFPPSDEQLKSGTASVVCLLNNFYPREAKVQWKVDNALQSGNSQESVTEQDSKDSTYSLSSTLTLSKADYEKHKVYACEVTHQGLSSPVTKSFNRGEC | 112 % of control
GpH7-B3 variant L235_15Y/GpL16-k0 (antibody, human IgG1, kappa, also called Ho Ab L235_15Y) heavy: not shown light: DIVMTQSPLSLPVTPGEPASISCQASESLVHSNRNTYLHWYLQKPGQSPQLLIYKVSNRFSGVPDRFSGSGSGTDFTLKISRVEAEDVGVYYCSQNTHVPPTFGQGTKVEIERTVAAPSVFIFPPSDEQLKSGTASVVCLLNNFYPREAKVQWKVDNALQSGNSQESVTEQDSKDSTYSLSSTLTLSKADYEKHKVYACEVTHQGLSSPVTKSFNRGEC | 107 % of control
GpH7-B3 variant K334_16H/GpL16-k0 (antibody, human IgG1, kappa, also called Ho Ab K334_16H) heavy: not shown light: DIVMTQSPLSLPVTPGEPASISCQASESLVHSNRNTYLHWYLQKPGQSPQLLIYKVSNRFSGVPDRFSGSGSGTDFTLKISRVEAEDVGVYYCSQNTHVPPTFGQGTKVEIERTVAAPSVFIFPPSDEQLKSGTASVVCLLNNFYPREAKVQWKVDNALQSGNSQESVTEQDSKDSTYSLSSTLTLSKADYEKHKVYACEVTHQGLSSPVTKSFNRGEC | 101 % of control
GpH7-B3 variant K334_08L/GpL16-k0 (antibody, human IgG1, kappa, also called Ho Ab K334_08L) heavy: not shown light: DIVMTQSPLSLPVTPGEPASISCQASESLVHSNRNTYLHWYLQKPGQSPQLLIYKVSNRFSGVPDRFSGSGSGTDFTLKISRVEAEDVGVYYCSQNTHVPPTFGQGTKVEIERTVAAPSVFIFPPSDEQLKSGTASVVCLLNNFYPREAKVQWKVDNALQSGNSQESVTEQDSKDSTYSLSSTLTLSKADYEKHKVYACEVTHQGLSSPVTKSFNRGEC | 103 % of control
GpH7-B3 variant K326_19Q/GpL16-k0 (antibody, human IgG1, kappa, also called Ho Ab K326_19Q) heavy: not shown light: DIVMTQSPLSLPVTPGEPASISCQASESLVHSNRNTYLHWYLQKPGQSPQLLIYKVSNRFSGVPDRFSGSGSGTDFTLKISRVEAEDVGVYYCSQNTHVPPTFGQGTKVEIERTVAAPSVFIFPPSDEQLKSGTASVVCLLNNFYPREAKVQWKVDNALQSGNSQESVTEQDSKDSTYSLSSTLTLSKADYEKHKVYACEVTHQGLSSPVTKSFNRGEC | 100 % of control

Now from value to binder:

Ho/Con_2aH | Binder
110 % of control | GpH7-B3 variant L328_14T/GpL16-k0 (antibody, human IgG1, kappa, also called Ho Ab L328_14T) heavy: not shown light: DIVMTQSPLSLPVTPGEPASISCQASESLVHSNRNTYLHWYLQKPGQSPQLLIYKVSNRFSGVPDRFSGSGSGTDFTLKISRVEAEDVGVYYCSQNTHVPPTFGQGTKVEIERTVAAPSVFIFPPSDEQLKSGTASVVCLLNNFYPREAKVQWKVDNALQSGNSQESVTEQDSKDSTYSLSSTLTLSKADYEKHKVYACEVTHQGLSSPVTKSFNRGEC
107 % of control | GpH7-B3 variant S337_09D/GpL16-k0 (antibody, human IgG1, kappa, also called Ho Ab S337_09D) heavy: not shown light: DIVMTQSPLSLPVTPGEPASISCQASESLVHSNRNTYLHWYLQKPGQSPQLLIYKVSNRFSGVPDRFSGSGSGTDFTLKISRVEAEDVGVYYCSQNTHVPPTFGQGTKVEIERTVAAPSVFIFPPSDEQLKSGTASVVCLLNNFYPREAKVQWKVDNALQSGNSQESVTEQDSKDSTYSLSSTLTLSKADYEKHKVYACEVTHQGLSSPVTKSFNRGEC
102 % of control | GpH7-B3 variant S324_02A/GpL16-k0 (antibody, human IgG1, kappa, also called Ho Ab S324_02A) heavy: not shown light: DIVMTQSPLSLPVTPGEPASISCQASESLVHSNRNTYLHWYLQKPGQSPQLLIYKVSNRFSGVPDRFSGSGSGTDFTLKISRVEAEDVGVYYCSQNTHVPPTFGQGTKVEIERTVAAPSVFIFPPSDEQLKSGTASVVCLLNNFYPREAKVQWKVDNALQSGNSQESVTEQDSKDSTYSLSSTLTLSKADYEKHKVYACEVTHQGLSSPVTKSFNRGEC
101 % of control | GpH7-B3 variant S337_10E/GpL16-k0 (antibody, human IgG1, kappa, also called Ho Ab S337_10E) heavy: not shown light: DIVMTQSPLSLPVTPGEPASISCQASESLVHSNRNTYLHWYLQKPGQSPQLLIYKVSNRFSGVPDRFSGSGSGTDFTLKISRVEAEDVGVYYCSQNTHVPPTFGQGTKVEIERTVAAPSVFIFPPSDEQLKSGTASVVCLLNNFYPREAKVQWKVDNALQSGNSQESVTEQDSKDSTYSLSSTLTLSKADYEKHKVYACEVTHQGLSSPVTKSFNRGEC
112 % of control | GpH7-B3 variant S239_09D/GpL16-k0 (antibody, human IgG1, kappa, also called Ho Ab S239_09D) heavy: not shown light: DIVMTQSPLSLPVTPGEPASISCQASESLVHSNRNTYLHWYLQKPGQSPQLLIYKVSNRFSGVPDRFSGSGSGTDFTLKISRVEAEDVGVYYCSQNTHVPPTFGQGTKVEIERTVAAPSVFIFPPSDEQLKSGTASVVCLLNNFYPREAKVQWKVDNALQSGNSQESVTEQDSKDSTYSLSSTLTLSKADYEKHKVYACEVTHQGLSSPVTKSFNRGEC
112 % of control | GpH7-B3 variant L328_20W/GpL16-k0 (antibody, human IgG1, kappa, also called Ho Ab L328_20W) heavy: not shown light: DIVMTQSPLSLPVTPGEPASISCQASESLVHSNRNTYLHWYLQKPGQSPQLLIYKVSNRFSGVPDRFSGSGSGTDFTLKISRVEAEDVGVYYCSQNTHVPPTFGQGTKVEIERTVAAPSVFIFPPSDEQLKSGTASVVCLLNNFYPREAKVQWKVDNALQSGNSQESVTEQDSKDSTYSLSSTLTLSKADYEKHKVYACEVTHQGLSSPVTKSFNRGEC
100 % of control | GpH7-B3 variant L328_06M/GpL16-k0 (antibody, human IgG1, kappa, also called Ho Ab L328_06M) heavy: not shown light: DIVMTQSPLSLPVTPGEPASISCQASESLVHSNRNTYLHWYLQKPGQSPQLLIYKVSNRFSGVPDRFSGSGSGTDFTLKISRVEAEDVGVYYCSQNTHVPPTFGQGTKVEIERTVAAPSVFIFPPSDEQLKSGTASVVCLLNNFYPREAKVQWKVDNALQSGNSQESVTEQDSKDSTYSLSSTLTLSKADYEKHKVYACEVTHQGLSSPVTKSFNRGEC
120 % of control | GpH7-B3 variant S267_02A/GpL16-k0 (antibody, human IgG1, kappa, also called Ho Ab S267_02A) heavy: not shown light: DIVMTQSPLSLPVTPGEPASISCQASESLVHSNRNTYLHWYLQKPGQSPQLLIYKVSNRFSGVPDRFSGSGSGTDFTLKISRVEAEDVGVYYCSQNTHVPPTFGQGTKVEIERTVAAPSVFIFPPSDEQLKSGTASVVCLLNNFYPREAKVQWKVDNALQSGNSQESVTEQDSKDSTYSLSSTLTLSKADYEKHKVYACEVTHQGLSSPVTKSFNRGEC
